To fix the notation:
B1: OR4K15 (parent)
chain: GUUAACGGUCAUAGGCCAUGGAAACUAGGAGCACCAUUUCGCUGCCAGUGAAGAAAUGAACAAAGAAAAUCUGGGCCAGGCAGGCAUCAAAAGAAAUAGUCUUGCGCUCAACCAGAAAGUCUGUAAUCAUUUUAAGGGUA

The variants in the series derive from B1. Kind of series: self-cleavage, relative activity (ratio to wild type); higher = more cleavage; in vitro, sequencing; the parent is a self-cleaving ribozyme.
As to U43A A78U, the self-cleavage was 1.02.
The result for U43A A117U reads 1.18; that for U43A A117G, 2.17.
Turning to G41U A82G, the self-cleavage came to 0.2.
A47G A92C: the self-cleavage stood at 0.42.
The result for A47G A92U reads 1.18.
Regarding C42U A94G, the self-cleavage stood at 2.27.
The result for U43G U100C reads 2.82; that for U43A A66U, 1.62; that for U43A A66G, 1.96.
The result for U43C A59G reads 0.68.
The result for C45A A91G reads 0.61; that for U43A G53A, 1.84; that for U43C A110U, 1.68.
As for G41A G136A, the self-cleavage was found to be 1.2.
The result for C46U U102A reads 1.59; that for C46U U102C, 1.84.
The result for U43A U122C reads 1.85; that for C46U U120C, 0.15; that for G44U U70A, 0.
As to U43A U70A, the self-cleavage is 0.37.
The result for U43C C109A reads 0.36; that for A47G A60U, 1.4; that for U43A U97C, 0.92.
The result for G41C A86U reads 0.57; that for A47G A91U, 0.76; that for G41C A69G, 1.84.
The result for A47C A51G reads 1.5; that for U43A G65A, 2.07.
U43C G48A: the self-cleavage was found to be 1.32.
The result for C46U G84A reads 1.72.
The result for G41A A116G reads 0.63; that for G44A U132A, 1.35.
The result for C40U A62G reads 1.2; that for C40U A62C, 1.11.
Consider U43C A96G, for which the self-cleavage was 1.09.
The result for U43C A96C reads 1.
The result for G44A A89U reads 1.59; that for G44A A89G, 1.14.
The result for U43A A82G reads 0.13; that for U43A A82U, 0.12.
Regarding G41U A91G, the self-cleavage worked out at 1.31.
With C45G U100C, the self-cleavage stood at 1.37.
The result for C46A A110U reads 1.53; that for U43C G99C, 0.26.
For the variant C46U G74A, the self-cleavage is 0.32.
As to G41C A111G, the self-cleavage stood at 0.02.
The result for U43A A55G reads 0.35; that for U43A A55U, 2.41; that for U43A A98G, 1.07.
The result for G41A U43A reads 1.69.
The result for G41A U43C reads 1.72.
For the variant A47G A69U, the self-cleavage was found to be 1.35.
The result for A47G A69G reads 0.93.
On to G41A A67G, for which the self-cleavage is 1.02.
The result for G44U A135G reads 1.6; that for U43A A89G, 1.77; that for C45U G48A, 1.78.
The result for G41A U122G reads 1.51.
The result for C45A A116G reads 1.32; that for C45G A90G, 1.2.
As to C40U G44A, the self-cleavage was 2.32.
The result for G41C A98G reads 0.57.
Turning to U43C U72C, the self-cleavage worked out at 0.07.
The result for U43C U72A reads 0.4.
The result for U43C U57C reads 0.31; that for C42A A98G, 0.37; that for A47C A55G, 1.43.
Consider C46U A82U, for which the self-cleavage amounted to 0.14.
Regarding C46U A82G, the self-cleavage is 0.94.
The result for C46U A82C reads 0.27; that for U43C C121U, 2.03.
The result for U43C A69U reads 1.74.
The result for A47C A54G reads 1.5; that for C40U A89G, 1.33.
C40U A89U: the self-cleavage was 1.93.
For the variant U43C A67G, the self-cleavage worked out at 1.39.
The result for U43C A78C reads 0.29; that for U43C A78G, 0.26.
The result for C46A A134G reads 1.14; that for U43C U132C, 1.27; that for C45U U127C, 0.56.
As to G44A G65A, the self-cleavage is 0.
The result for A47C A92G reads 0.95.
The result for U43C A95G reads 2.15.
On to C40U A78U, for which the self-cleavage amounted to 0.32.
The result for C40U A78G reads 0.44.
The result for U43G A67G reads 1.89.
The result for U43G A67U reads 2.63.
For C46A U120C, the self-cleavage stood at 0.87.
The result for U43A A47G reads 1.12; that for A47G A89G, 1.1; that for U43G U103A, 1.15.
The result for U43G A54U reads 1.97.
The result for C42U U130C reads 1.09.
G44A A51G: the self-cleavage was 2.19.
The result for G44A U130C reads 0.64.
The result for U43C A129G reads 1.1; that for C45A U131C, 0.26.
The result for C46U A67G reads 1.56.
For C45U A67G, the self-cleavage is 1.94.
The result for G41A A64G reads 2.12; that for U43C U124C, 1.13; that for C40U A118G, 1.21.
The result for U43C A60G reads 1.43; that for C42A A110G, 0.16.
With G41A A110C, the self-cleavage was 0.4.
The result for C46A A56G reads 1.81; that for G41A C113U, 0.02.
The result for U43C U100G reads 1.75.
The result for U43C U100A reads 0.67.
Consider G44U A110G, for which the self-cleavage was 0.18.
The result for C46U A55G reads 1.14; that for G44A A78G, 0.24.
The result for U43G A129G reads 1.19; that for U43A A129G, 0.65.
The result for C46A A116G reads 0.57; that for G41A U108C, 0.01; that for C42G A95G, 1.87.
G41A U100C: the self-cleavage came to 1.52.
The result for C45A A114G reads 0.06; that for C45U A68G, 1.96.
Take U43A C105U: the self-cleavage worked out at 0.1.
The result for A47C U97C reads 0.33; that for G44A G93C, 1.87; that for U43G A89G, 1.26.
The result for C46U A51G reads 1.42.
The result for U43A A114G reads 0.86; that for U43C A116C, 0.07; that for A47G A63G, 0.44.
For the variant G41C U139A, the self-cleavage is 1.78.
The result for C40U reads 1.57; that for C40U A51U, 2.
The result for A47G A94C reads 1.1.
The result for C42U A66G reads 1.64.
For G44A U133C, the self-cleavage came to 1.78.
The result for G44A A117G reads 1.66; that for G41A U103C, 1.76; that for G44A U127C, 1.58.
Take C42U A62G: the self-cleavage turned out to be 1.26.
The result for U43A U108C reads 0.02.
The result for U43A A140G reads 2.11.
The result for G44A A111G reads 0.01; that for U43C U120A, 2.06.
U43A U103C: the self-cleavage stood at 1.1.
The result for G41A A54U reads 1.03; that for G44A A68G, 1.81; that for C46U A96G, 2.13.
As to U43C A64G, the self-cleavage was 1.66.
The result for U43C A64U reads 1.82; that for C40U G99A, 0.32; that for A47C A56G, 1.35.
As to C46U U100C, the self-cleavage amounted to 2.37.
The result for C46U G138U reads 1.93; that for A47G A62U, 1.22.
The result for G44A G74A reads 0.17; that for C46U A47G, 0.79.
For C45U A95G, the self-cleavage was found to be 1.99.
The result for C46A A60G reads 0.67.
The result for U43G A140G reads 2.62.
As for U43G A114U, the self-cleavage came to 0.1.
The result for U43G A114G reads 0.27.
The result for C46U A111G reads 0.02; that for G41U A94U, 1.48.
The result for C46U A52G reads 1.09.
Turning to G44A A94G, the self-cleavage came to 1.48.
The result for U43C A140U reads 1.18.

For the origin of these results see the RNAGym collection of RNA variant scans (doi:10.7554/elife.90254).
